In the supplement of paper PMC7877785:
± gives the uncertainty stated by the source.

Experiment: self-splicing fitness, log relative to wild type (ln ratio); higher = more splicing; Tetrahymena group I intron in knt gene, E. coli kanamycin selection, DiMSum; sequences stand for … in CUCUCU…GGAGGGAAAAGUUAUCAGGCAUGCACCUGGUAGCUAGUCUUUAAACCAAUAGAUUGCAUCGGUUUAAAAGGCAAGACCGUCAAAUUGCGGGAAAGGGGUCAACAGCCGUUCAGUACCAAGUCUCAGGGGAAACUUUGAGAUGGCCUUGCAAAGGGUAUGGUAAUAAGCUGACGGACAUGGUCCUAACCACGCAGCCAAGUCCUAAGUCAACAGAUCUUCUGUUGAUAUGGAUGCAGUUCACAGACUAAAUGUCGGUCGGGGAAGAUGUAUUCUUCUCAUAAGAUAUAGUCGGACCUCUCCUUAAUGGGAGCUAGCGGAUGAAGUGAUGCAACACUGGAGCCGCUGGGAACUAAUUUGUAUGCGAAAGUAUAUUGAUUAGUUUUGGAGUACUCGUGGUCG
Procedure, shortened: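 Colonies from six replicate transformations of E. coli BL21(DE3) were pooled and amplicon-sequenced on an Illumina HiSeq 2500. The library placed an intron with all eight P1ex-region nucleotides randomised inside the knt kanamycin-resistance gene on pET-22b(+), and cells grew overnight at 37°C or 30°C on LB agar with or without 25 μg/mL kanamycin (plus 100 μg/mL carbenicillin, 50 μM IPTG, 0.2% rhamnose). Fitness is the DiMSum error-weighted combination of wild-type-normalised replicate fold changes, kanamycin versus none.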

| Sequence | self-splicing fitness (ln) (30 °C) | self-splicing fitness (ln) (37 °C) |
| --- | --- | --- |
| UCAGAGCAAUAUUACGAAAU | -3.56 ± 0.32 | -2.11 ± 0.46 |
| GCGAAGCAAUAUUACGCUAU | -2.45 ± 0.1 | -1.25 ± 0.11 |
| UUGCAGCAAUAUUACGAUAC |  | -1.74 ± 0.47 |
| GAAUAGCAAUAUUACGGAGC | -3.44 ± 0.26 | -1.77 ± 0.21 |
| ACCGAGCAAUAUUACGAAUG | -2.51 ± 0.16 | -2.7 ± 0.44 |
| GAUUAGCAAUAUUACGAGCU | -1.23 ± 0.088 | -0.791 ± 0.16 |
| CAGAAGCAAUAUUACGAGUC | -3.79 ± 0.48 | -2.16 ± 0.32 |
| GUCAAGCAAUAUUACGUAAA | -0.78 ± 0.058 | -0.463 ± 0.07 |
| CUGAAGCAAUAUUACGCAUU | -2.24 ± 0.12 | -2.45 ± 0.17 |
| ACGGAGCAAUAUUACGCUCU | -3.26 ± 0.32 | -1.22 ± 0.3 |
| AUAAAGCAAUAUUACGGGGG | -2.77 ± 0.28 | -2.66 ± 0.28 |
| ACAUAGCAAUAUUACGGUUC | -2.93 ± 0.17 | -2.51 ± 0.24 |
| UUCAAGCAAUAUUACGUCGG | -0.722 ± 0.067 | -0.516 ± 0.081 |
| CCGGAGCAAUAUUACGGACA | -2.43 ± 0.42 | -2.97 ± 0.47 |
| ACCAAGCAAUAUUACGCGGC | -3.19 ± 0.25 | -2.39 ± 0.21 |
| GCAGAGCAAUAUUACGCUUG | -3.5 ± 0.21 | -2.83 ± 0.31 |
| CUGAAGCAAUAUUACGGAGG | -3.67 ± 0.21 | -1.81 ± 0.24 |
| CUAGAGCAAUAUUACGCAGG | -2.12 ± 0.14 | -1.75 ± 0.19 |
| UAAGAGCAAUAUUACGUCGC |  | -3.39 ± 0.37 |
| AGCUAGCAAUAUUACGACUA | -0.935 ± 0.14 | -0.86 ± 0.13 |
| CCGCAGCAAUAUUACGCCAU | -3.66 ± 0.15 | -3.07 ± 0.19 |
| AACGAGCAAUAUUACGAGCG | -2.76 ± 0.19 | -2.55 ± 0.2 |
| AUUGAGCAAUAUUACGCUUU | -2.92 ± 0.24 | -1.29 ± 0.26 |
| UCUUAGCAAUAUUACGUGGA | -3.14 ± 0.32 | -3.03 ± 0.37 |
| AAACAGCAAUAUUACGAUAA | -1.6 ± 0.085 | -0.365 ± 0.092 |

| Sequence | self-splicing fitness (ln) (30 °C) | self-splicing fitness (ln) (37 °C) |
| --- | --- | --- |
| GUCAAGCAAUAUUACGUGGU | -4.8 ± 0.3 | -3.09 ± 0.16 |
| GUUCAGCAAUAUUACGAAGC | -0.705 ± 0.18 | -1.29 ± 0.2 |
| GCCUAGCAAUAUUACGUCGA | -1.67 ± 0.17 | -1.6 ± 0.21 |
| AUACAGCAAUAUUACGUGAG | -1.51 ± 0.06 | -0.677 ± 0.097 |
| AAAAAGCAAUAUUACGGGCU | -1.55 ± 0.074 | -1.24 ± 0.099 |
| GGACAGCAAUAUUACGUAUC | -0.918 ± 0.093 | -0.855 ± 0.11 |
| UGUAAGCAAUAUUACGCCAC | -3.43 ± 0.33 | -2.65 ± 0.41 |
| GACGAGCAAUAUUACGACAA |  | -1.24 ± 0.24 |
| UGAAAGCAAUAUUACGGGGU | -3.55 ± 0.2 | -2.48 ± 0.18 |
| GUGUAGCAAUAUUACGUAUU | -1.25 ± 0.12 | -2.82 ± 0.22 |
| AUUUAGCAAUAUUACGUUAA | -2.52 ± 0.27 | -2.56 ± 0.34 |
| CCAUAGCAAUAUUACGAAAU | -2.98 ± 0.37 |  |
| AUGGAGCAAUAUUACGUCAU |  | -1.33 ± 0.27 |
| AAGAAGCAAUAUUACGGAGU | -3.02 ± 0.15 | -2.86 ± 0.17 |
| GAAUAGCAAUAUUACGGUAU | -3.54 ± 0.18 | -1.32 ± 0.16 |
| AUGGAGCAAUAUUACGAAUA | -2.15 ± 0.34 | -1.08 ± 0.36 |
| UCCAAGCAAUAUUACGCGAC | -2.44 ± 0.23 |  |
| UGUGAGCAAUAUUACGUAUC | -3.75 ± 0.37 | -2.3 ± 0.32 |
| CGGAAGCAAUAUUACGGACA | 0.389 ± 0.13 | -0.329 ± 0.15 |
| GUGCAGCAAUAUUACGGGGC | -1.75 ± 0.15 | -2.63 ± 0.27 |
| GAUCAGCAAUAUUACGGGCU | -1.98 ± 0.085 | -1.4 ± 0.1 |
| UCUAAGCAAUAUUACGAAAG | -2.88 ± 0.17 | -2.03 ± 0.18 |
| ACGCAGCAAUAUUACGCUUA | -0.737 ± 0.089 | -0.286 ± 0.099 |
| CGUGAGCAAUAUUACGUCUG | -0.656 ± 0.072 | 0.0039 ± 0.094 |
| AGUAAGCAAUAUUACGUAUA | -2.38 ± 0.42 | -1.97 ± 0.28 |

| Sequence | self-splicing fitness (ln) (30 °C) | self-splicing fitness (ln) (37 °C) |
| --- | --- | --- |
| GUGAAGCAAUAUUACGGCCU | 0.395 ± 0.068 | 0.277 ± 0.085 |
| CUUAAGCAAUAUUACGGCGA | -4.04 ± 0.46 | -1.81 ± 0.34 |
| UUAUAGCAAUAUUACGUCGA | -0.277 ± 0.13 | -0.308 ± 0.15 |
| CUCAAGCAAUAUUACGCGAC | -1.93 ± 0.16 | -1.45 ± 0.19 |
| UGAUAGCAAUAUUACGCUCU | -1.41 ± 0.11 | 0.193 ± 0.15 |
| UCGAAGCAAUAUUACGCACU | -2.62 ± 0.18 | -0.962 ± 0.14 |
| CAUGAGCAAUAUUACGUCGC | -3.59 ± 0.29 | -2.13 ± 0.42 |
| ACUUAGCAAUAUUACGUAGA | -3.26 ± 0.13 | -1.59 ± 0.11 |
| UAUCAGCAAUAUUACGCAUU | -1.42 ± 0.076 | -0.197 ± 0.09 |
| AGGUAGCAAUAUUACGCGCC | -2.6 ± 0.032 | -1.56 ± 0.043 |
| AAAGAGCAAUAUUACGCUGU | -3.2 ± 0.15 | -1.88 ± 0.16 |
| GUACAGCAAUAUUACGGACU | -1.74 ± 0.062 | -0.781 ± 0.081 |
| CACGAGCAAUAUUACGGGGA | -3.15 ± 0.12 | -2.51 ± 0.13 |
| GUCAAGCAAUAUUACGCCCG | -2.15 ± 0.21 | -1.11 ± 0.2 |
| UAAGAGCAAUAUUACGCCGA | -2.94 ± 0.47 |  |
| AUGAAGCAAUAUUACGUAGU | -1.91 ± 0.062 | -0.665 ± 0.092 |
| GUCGAGCAAUAUUACGAGAC |  | 0.237 ± 0.43 |
| CAGUAGCAAUAUUACGGCGG | -0.246 ± 0.081 | -0.627 ± 0.091 |
| AGCAAGCAAUAUUACGUGAC | -2.49 ± 0.2 | -1.85 ± 0.27 |
| UUUAAGCAAUAUUACGUCUG | -0.513 ± 0.1 | -0.114 ± 0.12 |
| UGCGAGCAAUAUUACGUAUG | -3.11 ± 0.16 | -2.29 ± 0.21 |
| GACUAGCAAUAUUACGUUGA | -2.07 ± 0.21 | -1.59 ± 0.15 |
| ACGCAGCAAUAUUACGUUCG | -1.24 ± 0.059 | -0.442 ± 0.068 |
| UGAGAGCAAUAUUACGGGAU |  | -1.77 ± 0.37 |
| GCGAAGCAAUAUUACGAACA | -1.49 ± 0.34 | -1.16 ± 0.29 |

| Sequence | self-splicing fitness (ln) (30 °C) | self-splicing fitness (ln) (37 °C) |
| --- | --- | --- |
| AAUGAGCAAUAUUACGCGAC |  | -1.67 ± 0.48 |
| UGACAGCAAUAUUACGAAAG | -3.07 ± 0.25 | -2.15 ± 0.2 |
| GGGAAGCAAUAUUACGAGAC | -1.98 ± 0.26 | -2.1 ± 0.34 |
| UACAAGCAAUAUUACGUCCA | -1.06 ± 0.086 | -0.297 ± 0.096 |
| AAUGAGCAAUAUUACGCCAC | -1.83 ± 0.22 | -2.41 ± 0.49 |
| UUAGAGCAAUAUUACGGGGC | -3.24 ± 0.44 |  |
| CGUCAGCAAUAUUACGAAUU | -2.82 ± 0.2 | -0.915 ± 0.14 |
| AUACAGCAAUAUUACGGAUG | -2.7 ± 0.2 | -2.05 ± 0.14 |
| AAAGAGCAAUAUUACGCUUU | -3.18 ± 0.23 | -3.68 ± 0.36 |
| UGUGAGCAAUAUUACGGAGG | -3.33 ± 0.29 | -2.11 ± 0.34 |
| CCUUAGCAAUAUUACGAUCC | -2.32 ± 0.4 | -2.74 ± 0.49 |
| GGCAAGCAAUAUUACGCGGC | -3.13 ± 0.28 | -2.88 ± 0.41 |
| CUUAAGCAAUAUUACGUGUG | -1.18 ± 0.061 | -0.604 ± 0.074 |
| GUCGAGCAAUAUUACGUCAA | -2.62 ± 0.29 | -2.32 ± 0.22 |
| CGGUAGCAAUAUUACGCCAC | -3.5 ± 0.39 | -2.03 ± 0.27 |
| CGACAGCAAUAUUACGCGCU | -3.43 ± 0.12 | -1.91 ± 0.13 |
| CAUGAGCAAUAUUACGGGAU | -3.49 ± 0.3 |  |
| CGCGAGCAAUAUUACGCAUG | -2.48 ± 0.2 | -2.14 ± 0.16 |
| CGUCAGCAAUAUUACGGAGA | -3.44 ± 0.29 | -2.76 ± 0.27 |
| CAGAAGCAAUAUUACGGGAU | -3.18 ± 0.17 | -2.9 ± 0.2 |
| AACGAGCAAUAUUACGCGUG | -1.89 ± 0.094 | -1.12 ± 0.099 |
| UAUCAGCAAUAUUACGGGAA | -1.65 ± 0.1 | -0.124 ± 0.11 |
| UUUAAGCAAUAUUACGGUAU | -3.05 ± 0.17 | -0.94 ± 0.17 |
| UCUCAGCAAUAUUACGGAGU | -2.81 ± 0.22 | -2.49 ± 0.19 |
